Changes are numbered by the printed parent chain. Where no end group is shown, it is not given here. The star is where a group is joined. βGlcNAc = CC(=O)N[C@@H]1[C@@H](O)[C@H](O)[C@@H](CO)O[C@H]1*
Tests used:
TtOGA = target: T1, TtOGA (Thermobaculum terrenum, UniProt D1CDN2); experiment: fluorogenic 4MU-GlcNAc hydrolysis; Ki from IC50 by Cheng-Prusoff; format: biochemical; conditions: 4MU-GlcNAc 90 uM (= Km); 4 pM enzyme; 1 min preincubation
T1 construct: gene Tter_0116; full-length, N-terminal GST fusion from E. coli BL21, GST cut off with PreScission protease (pGEX-6P-1)

TtOGT = target: T2, TtOGT (Thermobaculum terrenum, UniProt D1CIY5, K341M); experiment: X-ray crystal structure of complex, […] A; format: binding; conditions: co-crystallized with 10 mM UDP; active site; mutant stated in the crystallization methods; PDB code assigned by reader
T2 construct: gene Tter_2822; full-length, N-terminal GST fusion from E. coli BL21, GST cut off with PreScission protease (pGEX-6P-1)

[1] = substrate: CC(=O)N[C@H]1[C@H](Oc2ccc3c(C)cc(=O)oc3c2)O[C@H](CO)[C@@H](O)[C@@H]1O; experiment: fluorescence of released 4-methylumbelliferone, Michaelis-Menten fit; format: biochemical, Thermobaculum terrenum; conditions: TBS, 0.1 mg/ml BSA, 2% DMSO; 0.2 nM enzyme
[2] = target: T3, TtOGA D120N (Thermobaculum terrenum O-GlcNAcase orthologue, product of gene Tter_0116, catalytic acid mutant) (Thermobaculum terrenum strain YNP1, UniProt D1CDN2 1-474, D120N); experiment: crystal structure; co-crystallised: 40 mg/ml TtOGA D120N with 7.2 mM hTab1-O-GlcNAc peptide in 50 mM HEPES pH 7.5, 250 mM NaCl, 0.5 mM TCEP; sitting drops, 38% PEG 4000, 400 mM sodium acetate, 0.1 M Tris-HCl pH 8.5, 22 °C; 2.06 Å; conditions: both partners purified
T3 construct: O-GlcNAcase (GH84) orthologue TtOGA of Thermobaculum terrenum YNP1, gene Tter_0116, full length, cloned into pGEX-6P-1; GST removed with PreScission protease; also called D120N mutant of TtOGA; Ttoga product; source: E. coli BL21, purified (GSH-Sepharose, PreScission cleavage, Superdex 75); not shown: GST, N-terminal, cleaved
T3 sequence (looked up): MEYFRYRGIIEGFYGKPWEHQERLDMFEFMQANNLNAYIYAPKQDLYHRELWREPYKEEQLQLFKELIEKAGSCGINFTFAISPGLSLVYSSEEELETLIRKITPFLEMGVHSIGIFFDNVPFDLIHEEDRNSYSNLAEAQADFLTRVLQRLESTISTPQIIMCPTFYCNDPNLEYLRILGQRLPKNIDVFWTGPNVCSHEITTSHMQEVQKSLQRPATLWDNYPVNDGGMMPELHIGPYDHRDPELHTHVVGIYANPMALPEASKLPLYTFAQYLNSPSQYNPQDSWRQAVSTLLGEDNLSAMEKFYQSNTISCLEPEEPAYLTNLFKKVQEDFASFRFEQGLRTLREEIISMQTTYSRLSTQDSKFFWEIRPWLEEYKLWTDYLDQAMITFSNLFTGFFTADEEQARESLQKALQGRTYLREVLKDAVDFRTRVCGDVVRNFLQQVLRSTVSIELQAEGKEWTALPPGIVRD

T1 sequence (D1CDN2 entry or part of it): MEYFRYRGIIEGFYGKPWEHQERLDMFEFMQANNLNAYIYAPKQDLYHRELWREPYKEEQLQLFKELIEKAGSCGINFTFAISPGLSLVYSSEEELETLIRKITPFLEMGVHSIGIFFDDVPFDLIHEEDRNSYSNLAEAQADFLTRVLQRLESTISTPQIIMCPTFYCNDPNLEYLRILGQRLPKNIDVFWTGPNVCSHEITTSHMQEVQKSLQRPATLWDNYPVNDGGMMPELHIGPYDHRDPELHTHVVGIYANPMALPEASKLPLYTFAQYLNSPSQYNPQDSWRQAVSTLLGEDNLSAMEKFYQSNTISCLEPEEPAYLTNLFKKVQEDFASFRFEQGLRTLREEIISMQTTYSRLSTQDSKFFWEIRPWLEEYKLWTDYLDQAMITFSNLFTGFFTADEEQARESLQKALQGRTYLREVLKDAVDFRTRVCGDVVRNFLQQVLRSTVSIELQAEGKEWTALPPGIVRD
T2 sequence (D1CIY5 entry or part of it K341M): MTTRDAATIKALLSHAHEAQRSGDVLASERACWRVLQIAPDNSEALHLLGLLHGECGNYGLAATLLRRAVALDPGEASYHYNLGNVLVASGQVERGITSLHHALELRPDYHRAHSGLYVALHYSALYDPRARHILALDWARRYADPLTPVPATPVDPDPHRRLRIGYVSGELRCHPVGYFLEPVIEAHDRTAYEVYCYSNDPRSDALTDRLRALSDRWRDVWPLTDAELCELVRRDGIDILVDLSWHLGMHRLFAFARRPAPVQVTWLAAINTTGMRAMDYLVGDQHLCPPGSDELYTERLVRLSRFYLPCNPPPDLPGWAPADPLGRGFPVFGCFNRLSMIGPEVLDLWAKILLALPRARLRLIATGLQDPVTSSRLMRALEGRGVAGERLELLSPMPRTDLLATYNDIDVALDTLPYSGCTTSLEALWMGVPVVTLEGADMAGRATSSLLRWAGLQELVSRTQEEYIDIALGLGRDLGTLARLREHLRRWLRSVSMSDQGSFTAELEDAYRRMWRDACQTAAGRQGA

**Q.** `C=CC=CC(=O)N[C@H]1c2nc(CCc3ccccc3)cn2[C@H](CO)[C@@H](O)[C@@H]1O` [GlcNAcstatin G] was tested. Which Ki (TtOGA) did it give?
**A.** 18 nM

**Q.** Which “X-ray crystal structure of complex, 2.80 A” value (TtOGT) does the source give for `O=c1ccn([C@@H]2O[C@H](COP(=O)(O)OP(=O)(O)O)[C@@H](O)[C@H]2O)c(=O)[nH]1` [UDP] here?
**A.** TtOGT was co-crystallized with the product of O-GlcNAc transfer, UDP

B1: TtOGA (Thermobaculum terrenum ATCC BAA-798) (protein)
chain: T3 sequence (looked up) with N120D
notes: full-length, N-terminal GST fusion from E. coli BL21, GST cut off with PreScission protease (pGEX-6P-1)
**Q.** B1 was tested. Which Km [1] did it give?
**A.** 90 µM

**Q.** What about the kcat [1] of the same molecule?
**A.** 180 s⁻¹

B2: hTab1-O-GlcNAc peptide (392-VPYgSSAQ-398, gS is GlcNAcylated serine) (peptide)
peptide: VPYS(βGlcNAc)SAQ
notes: probably synthetic; also called hTab1 glycopeptide; glycopeptide derived from the validated hTab1 glycosylation site
**Q.** Does B2 bind [2]?
**A.** binds

From PMC4683255, “Evidence for a Functional O-Linked N-Acetylglucosamine (O-GlcNAc) System in the Thermophilic Bacterium Thermobaculum terrenum*” (The Journal of Biological Chemistry, 2015)
